Key:
EGFR-Flag [1] = molecular target: T1, EGFR-Flag (UniProt P00533 25-1210, limits assumed); assay: co-IP from HEK293T cells overexpressing EpCAM-V5 and EGFR-Flag (FIG. 1C)
T1 construct: whole, on cells; also called exogenous EGFR; not shown: Flag tag
Protocol: (§1) FIGS. 1A to 1H. EpEX binds to EGFR through its EGF-like domain I. (FIG. 1A) Immunoprecipitation (IP) of affinity cross-linked EpEX-Fc bound to EGFR from HCT116 cells. (FIG. 1B) EpEX-Fc was added to EGFRECD-coated ELISA plates and detected by TMB colorimetric peroxidase assay. (FIG. 1C) 293T cells were transfected with EGFR-Flag and EpCAM-V5. IP was performed with anti-V5 antibody (left panel) or anti-Flag antibody (right panel) followed by Western blotting. (FIG. 1D) 293T cells were transfected with EGFR-Flag and EGF domain-deleted mutant EpCAM-V5. The protein interaction was probed by IP with anti-V5 antibody and Western blotting with anti-Flag antibody. (FIG. 1E) In culture media from 293T cells with EGFRECD-Flag and EpEX-Fc transfection, IP was performed with Dynabeads® Protein G and detected by Western blotting with anti-Flag antibody. (FIG. 1F) 293T cells were transiently transfected with EGFRECD-Flag and EGF domain-deleted mutant EpEX-Fc. […] (FIG. 1G) Purified EGFRECD-6×His and EGF domain-deleted mutant EpEX-Fc were incubated and IP was performed with Dynabeads® Protein G and detected by Western blotting. (FIG. 1H) HCT116 cells were starved and treated with wild-type or EGF domain-deleted mutant EpEX, and EGFR signaling was analyzed by Western blotting. […]

EGFR-Flag [2] = molecular target: T1, EGFR-Flag; assay: co-IP with anti-V5, Western blot with anti-Flag, transfected 293T cells (FIG. 1D)
Protocol: as §1

binding result (EGFR-Flag [1]) | binding result (EGFR-Flag [2]) | Binder
binds |  | EpCAM-V5 (other, UniProt P16422 24-314, looked up, whole, on cells; also called exogenous EpCAM; not shown: V5 tag) QEECVCENYKLAVNCFVNNNRQCQCTSVGAQNTVICSKLAAKCLVMKAEMNGSKLGRRAKPEGALQNNDGLYDPDCDESGLFKAKQCNGTSMCWCVNTAGVRRTDKDTEITCSERVRTYWIIIELKHKAREKPYDSKSLRTALQKEITTRYQLDPKFITSILYENNVITIDLVQNSSQKTQNDVDIADVAYYFEKDVKGESLFHSKKMDLTVNGEQLDLDPGQTLIYYVDEKAPEFSMQGLKAGVIAVIVVVVIAVVAGIVVLVISRKKRMAKYEKAEIKEMGEMHRELNA
 | binds | EGF-like domain II-deleted EpCAM mutant (EpCAMΔEGFII), V5-tagged (other, UniProt P16422 24-314, looked up, whole, on cells; also called EGF domain-deleted mutant EpCAM-V5; not shown: V5 tag) QEECVCENYKLAVNCFVNNNRQCQCTSVGAQNTVICSKLAAKSERVRTYWIIIELKHKAREKPYDSKSLRTALQKEITTRYQLDPKFITSILYENNVITIDLVQNSSQKTQNDVDIADVAYYFEKDVKGESLFHSKKMDLTVNGEQLDLDPGQTLIYYVDEKAPEFSMQGLKAGVIAVIVVVVIAVVAGIVVLVISRKKRMAKYEKAEIKEMGEMHRELNA
